Read-outs that look alike come from different tables or passages of the source.
B1: SEQID-00690: engineered secreted variant of SEQID-00407 enriched in essential amino acids which retains enzymatic activity (protein, listed as Bacillus subtilis)
chain: ETANKSNELTAPSIKSGTILHAWNWSFNTLKHNMKDIHDAGYTAIQTSPINQVKEGNQGDKSMSNWYWLYQPTSYQIGNRYLGTEQEFKEMCAAAEEYGIKVIVDAVINHTTSDLVGVLSNEVKSIPNWTHGNTQIKNWSDRWDVTQNSLLGLYDWNTQNTQVQSYLKRFLDRALNDGADGFRFDAAKHIELPDDGSYGSQFWPNITRVVMEFQYGEILQDSASRDAAYANYMDVTASNYGHSIRSALKNRNLGVSNIVMYILRVSADKLVTWVESHDTYANDDEESTWMSDDDIRLGWAVIASRSGSTPLFFSRPEGGGNGVRFPGKSQIGDRGSALFEDQAITAVNRFHNVMAGLPKRLSNPNGNNQIFMNQRGSHGVVLANAGSSSVSINTATKLPDGRYDNKAGAGSFQVNDGKLTGTINARSVAVLYPDDIAKAPHVFLENYKTGVTHSFNDQLTITMRADANTTKAVYQINNGPETAFKDGDQFTIGKGDPFGKTYTIMLKGTNSDGVTRTEKYSFVKRDPASAKTIGYQNPNHWSQVNAYIYKHDGSRVIELTGSWPGKPMTKNADGIYTLTLPADTDTTNAKVIFNNGSAQVPGQNQPGFDYVLNGLYNDSGLSGSLPH
modifications: source: /note="strain 168"
B2: Deglycosylated SEQID-00363: SEQID-00363 with mannose glycans reduced enzymatically by alpha mannosidase (protein)
chain: ATLDSWLSNEATVARTAILNNIGADGAWVSGADSGIVVASPSTDNPDYFYTWTRDSGLVLKTLVDLFRNGDTSLLSTIENYISAQAIVQGISNPSGDLSSGAGLGEPKFNVDETAYTGSWGRPQRDGPALRATAMIGFGQWLLDNGYTSTATDIVWPLVRNDLSYVAQYWNQTGYDLWEEVNGSSFFTIAVQHRALVEGSAFATAVGSSCSWCDSQAPEILCYLQSFWTGSFILANFDSSRSGKDANTLLGSIHTFDPEAACDDSTFQPCSPRALANHKEVVDSFRSIYTLNDGLSDSEAVAVGRYPEDTYYNGNPWFLCTLAAAEQLYDALYQWDKQGSLEVTDVSLDFFKALYSDAATGTYSSSSSTYSSIVDAVKTFADGFVSIVETHAASNGSMSEQYDKSDGEQLSARDLTWSYAALLTANNRRNSVVPASWGETSASSVPGTCAATSAIGTYSSVTVTSWPSIVATGGTTTTATPTGSGSVTSTSKTTATASKTSTSTSSTSCTTPTAVAVTFDLTATTTYGENIYLVGSISQLGDWETSDGIALSADKYTSSDPLWYVTVTLPAGESFEYKFIRIESDDSVEWESDPNREYTVPQACGTSTATVTDTWR
modifications: deglycosylated; Aspergillus niger

Key:
[1] = test system: α-amylase; experiment: Amylase activity assay on starch plates (halo); set-up: species or system Bacillus subtilis
Procedure: SEQID-00407 is an α-amylase in Bacillus subtilis that has the activity of breaking down polysaccharides, such as starch, into monosaccharides or disaccharides. […] If there is enzymatic activity, the secreted enzyme will breakdown the starch and upon staining by iodine, there will be a halo surrounding the Bacillus subtilis colonies. 1% starch plates were made by combining 25 g Luria Broth-Miller, 10 g starch, 15 g bacteriological agar, and 1 L water. 10 mM IPTG was added to the starch plates after the agar has solidified. Single colonies of Bacillus subtilis strains expressing the mutant polypeptides were inoculated in 5 ml LB at 37° C. for 4 hours and 50 μl of the liquid culture were spotted at the center for the starch plates. After 20 hours of growth and induced secretion, 10% iodine was added to the starch plates to stain for starch. When the wild-type enzyme is secreted, it creates a large halo around the cells. […] Table E37A quantifies the area of the halos relative to the area of the cells. […]
SEQID-00407 is an α-amylase in Bacillus subtilis that has the activity of breaking down polysaccharides, such as starch, into monosaccharides or disaccharides. […] Table E38E quantifies the area of the halos relative to the area of the cells.

[2] = Intact half-life during simulated gastric fluid (SGF) digestion; details: SGF pH 1.5, pepsin:polypeptide 1:20 w/w, 37° C.; intact protein
[3] = simulated gi fluid
[4] = test system: Pancreatin; format: in vitro ADME, Porcine
Procedure: Control samples were protease-free.
Analyses were performed using an Agilent 1100 series system.

[5] = rat, in vivo, po
Procedure: The boavailability o native and modified forms (ie. deglycosylated and hydrolyzed) of SEQID-00363 was evaluated using the methods described in herein. Briefly, native and modified forms of SEQID-00363 were orally administered to intrajugular-cannulated rats and concentration of free amino acids in plasma samples collected over a 4 h period was determined by HPLC amino acid analysis.

[6] = rat, in vivo

| Molecule | Halo/Cell ([1]; area of halo relative to area of cells) | Halo Area (in^2) ([1]; starch plate, iodine stain, 20 hours) | SGF Half-life (t½) [2] | SGF Half-life (t½) [3] | Free Leu (μM) at 120 min time point of Pancreatin digest [4] | bioavailability of Leucine and EAAs versus native SEQID-00363 [5] | bioavailability of Serine and Threonine versus native SEQID-00363 [5] | total protein mass in digesta samples [6] |
| --- | --- | --- | --- | --- | --- | --- | --- | --- |
| B1 | 2.63 | 1.234 in^2 | 4.4 min |  |  |  |  |  |
| B2 |  |  |  | 4.3 min | 799.2 µM | did not increase the bioavailability | did increase the bioavailability | 7.7 mg |

— US20160228506A1, “Compositions and Formulations for Prevention and Reduction of Tumorigenesis, Cancer Cell Proliferation and Invasion, and Methods of Production and Use Thereof in Cancer Treatment” (PRONUTRIA, INC., priority 2013, published 2016)
